Data from article PMC8546539, “CK2 Phosphorylation of Human Papillomavirus 16 E2 on Serine 23 Promotes Interaction with TopBP1 and Is Critical for E2 Interaction with Mitotic Chromatin and the Viral Life Cycle” (mBio, 2021).

B1: His-E2-S23D (amino acids 1 to 200) (domain or fragment)
chain: METLCQRLNVCQDKILTHYENDDTDLRDHIDYWKHMRLECAIYYKAREMGFKHINHQVVPTLAVSKNKALQAIELQLTLETIYNSQYSNEKWTLQDVSLEVYLTAPTGCIKKHGYTVEVQFDGDICNTMHYTNWTHIYICEEASVTVVEGQVDYYGLYYVHEGIRTYFVQFKDDAEKYSKNKVWEVHAGGQVILCPTSVF
notes: source: E. coli BL21(DE3), purified (Ni-NTA agarose, size exclusion chromatography)

Key:
TopBP1 [1] = biological target: TopBP1 (UniProt Q92547); test: TopBP1 antibody co-IP, E2 Western blot; details: reference: E2-WT; sites S23
TopBP1 [2] = biological target: TopBP1 (UniProt Q92547); test: TopBP1 antibody co-IP, E2 Western blot; details: reference: E2-WT; sites S23; remark: listed apart in the source
[3] = biological target: T1, GST TopBP1 (aa 32 to 1522) His (UniProt Q92547 32-1522); test: pull-down; details: both partners purified
T1 construct: also called GST-tagged TopBP1; recombinant GST-TopBP1 (full length); source: E. coli BL21(DE3), purified (Glutathione Sepharose 4B, size exclusion chromatography)

Molecule | binding against the reference (TopBP1 [1]) | binding against the reference (TopBP1 [2]) | binding result [3]
HPV16 E2 (from UniProt P03120) E2-S23A | weaker | weaker | –
B1 | – | – | binds
